Experimental data published in paper PMC9278865 (Science Advances, 2022).

Biological target: SARS-CoV-2 RBDwt (residues 319 to 541) (SARS-CoV-2, UniProt P0DTC2 319-541)
Experiment: SPR

B1: ACE2_(740) LFMYQY2HA in the IgG3 backbone with a truncated hinge (M80) (Fc fusion)
chain: QSTIEEQAKTFLDKFNHEAEDLFYQSSLASWNYNTNITEENVQNMNNAGDKWSAFLKEQSTFAQYYPLQEIQNLTVKLQLQALQQNGSSVLSEDKSKRLNTILNTMSTIYSTGKVCNPDNPQECLLLEPGLNEIMANSLDYNERLWAWESWRSEVGKQLRPLYEEYVVLKNEMARANHYEDYGDYWRGDYEVNGVDGYDYSRGQLIEDVEHTFEEIKPLYEHLHAYVRAKLMNAYPSYISPIGCLPAHLLGDMWGRFWTNLYSLTVPFGQKPNIDVTDAMVDQAWDAQRIFKEAEKFFVSVGLPNMTYGFWENSMLTDPGNVQKAVCHPTAWDLGKGDFRILMCTKVTMDDFLTAHAEMGAIQYDMAYAAQPFLLRNGANEGFHEAVGEIMSLSAATPKHLKSIGLLSPDFQEDNETEINFLLKQALTIVGTLPFTYMLEKWRWMVFKGEIPKDQWMKKWWEMKREIVGVVEPVPHDETYCDPASLFHVSNDYSFIRYYTRTLYQFQFQEALCQAAKHEGPLHKCDISNSTEAGQKLFNMLRLGKSEPWTLALENVVGAKNMNVRPLLNYFEPLFTWLKDQNKNSFVGWSTDWSPYADQSIKVRISLKSALGDKAYEWNDNEMYLFRSSVAYAMRQYFLKVKNQMILFGEEDVRVANLKPRISFNFFVTAPKNVSDIIPRTEVEKAIRMSRSRINDAFRLNDNSLEFLGIQPTLGPPNQPPVS
binding result: binds
